Patent publication US20250027114

Tests used:
[1] = test system: T1, N1-21-ABE8e (Neisseria meningitidis); assay: cell_activity; details: E. coli ABE-PPA
T1 sequence: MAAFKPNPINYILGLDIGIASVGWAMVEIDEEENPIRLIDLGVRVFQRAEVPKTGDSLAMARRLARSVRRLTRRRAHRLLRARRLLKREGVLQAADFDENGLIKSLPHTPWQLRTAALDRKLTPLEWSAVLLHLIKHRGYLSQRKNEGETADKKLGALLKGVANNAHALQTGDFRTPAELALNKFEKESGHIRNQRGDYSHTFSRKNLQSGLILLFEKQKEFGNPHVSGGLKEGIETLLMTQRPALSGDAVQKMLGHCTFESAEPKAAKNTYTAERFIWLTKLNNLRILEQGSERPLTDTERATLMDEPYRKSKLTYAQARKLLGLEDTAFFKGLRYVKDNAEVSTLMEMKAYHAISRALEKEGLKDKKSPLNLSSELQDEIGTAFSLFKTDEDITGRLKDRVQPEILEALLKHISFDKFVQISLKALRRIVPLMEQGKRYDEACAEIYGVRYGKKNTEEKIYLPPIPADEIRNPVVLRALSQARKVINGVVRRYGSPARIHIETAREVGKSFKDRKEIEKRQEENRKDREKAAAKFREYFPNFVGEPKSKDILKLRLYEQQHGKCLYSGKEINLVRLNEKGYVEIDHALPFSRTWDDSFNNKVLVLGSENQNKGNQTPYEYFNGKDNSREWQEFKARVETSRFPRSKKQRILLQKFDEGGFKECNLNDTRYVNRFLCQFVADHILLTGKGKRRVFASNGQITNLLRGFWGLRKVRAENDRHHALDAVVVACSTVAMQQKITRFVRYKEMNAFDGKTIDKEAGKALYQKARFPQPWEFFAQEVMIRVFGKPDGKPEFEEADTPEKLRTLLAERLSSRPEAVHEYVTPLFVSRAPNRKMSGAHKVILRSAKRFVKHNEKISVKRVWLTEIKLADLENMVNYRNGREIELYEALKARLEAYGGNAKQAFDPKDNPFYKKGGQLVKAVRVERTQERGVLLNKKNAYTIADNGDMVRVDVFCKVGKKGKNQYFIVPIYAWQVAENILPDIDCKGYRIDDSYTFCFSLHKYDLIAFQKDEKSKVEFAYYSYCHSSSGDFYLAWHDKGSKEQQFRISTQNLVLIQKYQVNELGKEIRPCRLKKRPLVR

[2] = test system: T2, Nme2Cas9 (Nme2-ABE8e) (Neisseria meningitidis); assay: cell_activity; details: PAM N4YNC average, E. coli ABE-PPA; 14% on N4YND
T2 sequence: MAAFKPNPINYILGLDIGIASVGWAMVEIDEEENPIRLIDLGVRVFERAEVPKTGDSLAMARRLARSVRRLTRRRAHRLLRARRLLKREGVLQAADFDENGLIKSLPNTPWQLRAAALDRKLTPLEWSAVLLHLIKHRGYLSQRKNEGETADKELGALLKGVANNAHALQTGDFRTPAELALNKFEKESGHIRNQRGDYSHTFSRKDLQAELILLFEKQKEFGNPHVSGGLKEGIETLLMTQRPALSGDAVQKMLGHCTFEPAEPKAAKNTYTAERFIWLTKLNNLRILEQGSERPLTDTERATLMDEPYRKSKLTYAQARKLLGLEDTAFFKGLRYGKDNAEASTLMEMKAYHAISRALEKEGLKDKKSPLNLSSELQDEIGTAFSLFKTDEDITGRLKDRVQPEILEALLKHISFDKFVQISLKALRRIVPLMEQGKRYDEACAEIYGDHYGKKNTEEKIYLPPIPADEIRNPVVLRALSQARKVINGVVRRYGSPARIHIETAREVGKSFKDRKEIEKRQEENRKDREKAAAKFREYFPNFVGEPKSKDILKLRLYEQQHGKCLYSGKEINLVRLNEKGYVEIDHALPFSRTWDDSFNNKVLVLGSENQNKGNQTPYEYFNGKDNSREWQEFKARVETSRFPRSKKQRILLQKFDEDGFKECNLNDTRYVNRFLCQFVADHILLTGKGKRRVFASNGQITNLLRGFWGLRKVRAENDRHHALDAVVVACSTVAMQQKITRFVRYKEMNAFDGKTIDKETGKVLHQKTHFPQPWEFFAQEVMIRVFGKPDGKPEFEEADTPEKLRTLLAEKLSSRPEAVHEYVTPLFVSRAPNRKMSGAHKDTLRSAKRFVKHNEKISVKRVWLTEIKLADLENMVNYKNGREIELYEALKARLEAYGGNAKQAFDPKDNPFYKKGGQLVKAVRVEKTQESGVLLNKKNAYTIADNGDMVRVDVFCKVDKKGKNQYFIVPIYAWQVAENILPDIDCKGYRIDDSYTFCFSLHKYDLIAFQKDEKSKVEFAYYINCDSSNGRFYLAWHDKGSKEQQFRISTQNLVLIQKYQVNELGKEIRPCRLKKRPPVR

## AUGGCCCAGACUGAGCACGUGAGGUUGUAGCUCCCUUUCUCAUUUCGGAAACGAAAUGAGAACCGUUGCUACAAUAAGGCCGUCUGAAAAGAUGUGCCGCAACGCUCUGCCCCUUAAAGCUUCUGCUUUAAGGGGCAUCGUUUA / ATGGCCCAGACTGAGCACGTGA / TCACGTGCTCAGTCTGGGCCAT [ABE-PPA sgRNA ; ABE-PPA protospacer library target]
[1]; PAM N3CCC (counterselected), virtually eliminated
  activity (% A-to-G conversion): 4.8
[1]; PAM N3TTG, 64% average on N4GN PAMs
  activity (% A-to-G conversion): 67
[2]
  activity (% A-to-G conversion): 18
